From the supplement of paper PMC12667976
± gives the standard error.

B1: library; numbered along this chain (parent)
chain: MATDAALRRLLRLHRTEIAVAVDSAFPLLHALADHDVVPEDKFQETLHLKEKEGCPQAFHALLSWLLTQDSTAILDFWRVLFKDYNLERYGRLQPILDSFPKDVDLSQPRKGRKPPAVPKALVPPPRLPTKRKASEEARAAAPAALTPRGTASPGSQLKAKPPKKPESSAEQQRLPLGNGIQTMSASVQRAVAMSSGDVPGARGAVEGILIQQVFESGGSKKCIQVGGEFYTPSKFEDSGSGKNKARSSSGPKPLVRAKGAQGAAPGGGEARLGQQGSVPAPLALPSDPQLHQKNEDECAVCRDGGELICCDGCPRAFHLACLSPPLREIPSGTWRCSSCLQATVQEVQPRAEEPRPQEPPVETPLPPGLRSAGEEVRGPPGEPLAGMDTTLVYKHLPAPPSAAPLPGLDSSALHPLLCVGPEGQQNLAPGARCGVCGDGTDVLRCTHCAAAFHWRCHFPAGTSRPGTGLRCRSCSGDVTPAPVEGVLAPSPARLAPGPAKDDTASHEPALHRDDLESLLSEHTFDGILQWAIQSMARPAAPFPS

Variants of: B1
Assay: AIRE transcriptional activation functional score (insulin promoter-GFP; nonsense median 0, synonymous median 1) (normalised score); higher = higher AIRE activity (more reporter activation)
Conditions: with insulin promoter-GFP reporter in HEK293
Protocol: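 Deep mutational scan of full-length human AIRE (codon-optimized cDNA, DT-POPCode NNN libraries over three regions) integrated at a Bxb1 landing pad in HEK293 cells carrying an insulin core promoter-GFP reporter at a Flp-In site. Cells were sorted for the top 10% GFP about 14 days after transfection. Variant frequency log-ratios (select vs non-select, TileSeq) were rescaled so that the nonsense median is 0 and the synonymous median is 1, then averaged over biological replicates.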

| Variant | AIRE transcriptional activation functional score |
| --- | --- |
| E137T | 0.166 ± 0.34 |
| A300W | 1.22 ± 0.056 |
| G469S | 1.15 ± 0.27 |
| G333D | 0.864 ± 0.14 |
| L511T | 0.121 ± 0.18 |
| C457S | -0.11 ± 0.2 |
| C457M | -0.234 ± 0.073 |
| C457T | -0.0599 ± 0.15 |
| L81D | 0.439 ± 0.029 |
| E329C | 1.46 ± 0.21 |
| E329P | 0.962 ± 0.13 |
| G228N | 1.51 ± 0.18 |
| A496L | 1.15 ± 0.18 |
| A58V | 0.221 ± 0.19 |
| I209T | 0.1 ± 0.39 |
| T232S | 1.15 ± 0.71 |
| P166D | 0.983 ± 0.71 |
| S464E | 1.32 ± 0.084 |
| S464C | 1.18 ± 0.15 |
| L210H | 0.71 ± 0.062 |
| I96K | 0.201 ± 0.52 |
| H60T | 0.117 ± 0.24 |
| H60Y | 0.332 ± 0.24 |
| D41F | 0.468 ± 0.092 |

| Variant | AIRE transcriptional activation functional score |
| --- | --- |
| S24W | -0.0451 ± 0.22 |
| S24L | -0.159 ± 0.4 |
| V256F | 1.33 ± 0.23 |
| P416A | 0.819 ± 0.15 |
| P416R | 0.68 ± 0.29 |
| A142Q | -0.0872 ± 0.33 |
| C340K | 1.62 ± 0.11 |
| A117D | 0.179 ± 0.29 |
| S506T | 0.197 ± 0.42 |
| R272V | 0.896 ± 0.33 |
| E45Q | 1.17 ± 0.82 |
| P400F | 0.712 ± 0.24 |
| K245G | 0.76 ± 0.17 |
| L323Q | 1.35 ± 0.26 |
| L417H | 0.632 ± 0.12 |
| K111F | 0.696 ± 0.48 |
| K111A | 1.84 ± 0.04 |
| R132N | -0.47 ± 0.23 |
| E167T | 0.707 ± 0.28 |
| T344D | 0.882 ± 0.3 |
| P280C | 0.574 ± 0.13 |
| P280Q | 1.14 ± 0.094 |
| D442M | 0.124 ± 0.025 |
| D442T | 0.24 ± 0.072 |

| Variant | AIRE transcriptional activation functional score |
| --- | --- |
| R8K | 0.485 ± 0.11 |
| I533N | -0.116 ± 0.23 |
| E375T | 0.785 ± 0.1 |
| F525E | -1.43 ± 0.36 |
| P101T | -0.239 ± 0.52 |
| S220I | 0.449 ± 0.49 |
| S220D | 0.488 ± 0.084 |
| S220W | -1.37 ± 0.28 |
| R79P | -0.266 ± 0.58 |
| L308E | 1.02 ± 0.049 |
| H507P | 1.02 ± 0.21 |
| T147W | 1.75 ± 0.18 |
| K161N | 0.888 ± 0.32 |
| Q157S | 1.05 ± 0.49 |
| Q157G | 1.08 ± 0.46 |
| Q157V | 0.829 ± 0.34 |
| G227R | 0.425 ± 0.44 |
| V20Q | -0.25 ± 0.26 |
| V20C | -0.981 ± 0.093 |
| H48L | 0.44 ± 0.59 |
| H48P | -0.897 ± 0.77 |
| G313D | 1.39 ± 0.29 |
| G313M | -0.04 ± 0.12 |
| I74S | -0.0735 ± 0.31 |

| Variant | AIRE transcriptional activation functional score |
| --- | --- |
| I74C | 0.295 ± 0.23 |
| I74A | 0.186 ± 0.47 |
| G197N | 1.26 ± 0.45 |
| G197H | 0.619 ± 0.079 |
| E485M | -0.286 ± 0.13 |
| P115W | 0.278 ± 0.1 |
| A144T | 1.02 ± 0.52 |
| P509G | 1.11 ± 0.048 |
| G467E | 1.16 ± 0.064 |
| K294T | 0.822 ± 0.31 |
| D36F | -0.636 ± 0.15 |
| D36S | 0.294 ± 0.28 |
| L385G | 1 ± 0.09 |
| G477Q | 0.0223 ± 0.072 |
| T130D | 0.225 ± 0.23 |
| P360L | 1.06 ± 0.15 |
| P266K | 1.19 ± 0.22 |
| D514L | 0.0834 ± 0.22 |
| D514I | -0.186 ± 0.15 |
| T390N | 1.09 ± 0.16 |
| P365G | 0.47 ± 0.33 |
| L87A | 0.0518 ± 0.52 |
| G440A | 0.417 ± 0.2 |
| P233S | 1.01 ± 0.3 |

| Variant | AIRE transcriptional activation functional score |
| --- | --- |
| P542L | 1.07 ± 0.084 |
| P542V | 1.16 ± 0.16 |
| D389A | 1.04 ± 0.42 |
| F82G | 0.401 ± 0.45 |
| S107Q | 0.12 ± 0.51 |
| L28V | 0.05 ± 0.33 |
| C437S | 0.389 ± 0.13 |
| S332H | 0.932 ± 0.096 |
| G112Q | 1.37 ± 0.17 |
| A134V | 1.34 ± 0.35 |
| A450G | 0.382 ± 0.16 |
| T183K | 0.924 ± 0.3 |
| L428C | 0.816 ± 0.14 |
| A432C | 1.2 ± 0.14 |
| S234R | 1.21 ± 0.29 |
| D410W | 0.337 ± 0.064 |
| S474N | 0.296 ± 0.24 |
| S535K | -0.212 ± 0.16 |
| S535P | 0.472 ± 0.33 |
| F543P | 1.13 ± 0.06 |
| F543D | 0.845 ± 0.096 |
| P380S | 0.998 ± 0.29 |
| P380M | 1.34 ± 0.077 |
| P380R | 0.936 ± 0.28 |

| Variant | AIRE transcriptional activation functional score |
| --- | --- |
| T468Y | 1.25 ± 0.2 |
| G431W | 1.29 ± 0.027 |
| L47W | -0.717 ± 0.15 |
| S196C | 1.24 ± 0.029 |
| Q358I | 1.1 ± 0.07 |
| D502Q | 0.924 ± 0.15 |
| D515A | -0.0405 ± 0.13 |
| D515T | 0.0981 ± 0.33 |
| P95S | 0.715 ± 0.46 |
| C314A | 0.983 ± 0.3 |
| C314I | 1.08 ± 0.13 |
| K102G | 0.563 ± 0.55 |
| K102S | 0.749 ± 0.77 |
| K501C | 0.625 ± 0.06 |
| E296H | 1.76 ± 0.052 |
| E296M | 1.14 ± 0.098 |
| G421A | 0.875 ± 0.25 |
| P398I | 1.23 ± 0.12 |
| P398C | 0.359 ± 0.058 |
| A140N | 0.714 ± 0.56 |
| R378C | 0.601 ± 0.14 |
| A452R | 0.86 ± 0.35 |
| P125E | 0.892 ± 0.15 |
| C419Q | 1.3 ± 0.049 |

| Variant | AIRE transcriptional activation functional score |
| --- | --- |
| P384S | 0.379 ± 0.29 |
| A264V | 1.07 ± 0.3 |
| A264H | 1.68 ± 0.053 |
| A264W | 1.57 ± 0.028 |
| E229K | 0.571 ± 0.18 |
| E229C | 0.0314 ± 0.21 |
| D98A | 0.771 ± 0.59 |
| R203Y | 0.581 ± 0.13 |
| Q276R | 0.822 ± 0.37 |
| S412K | 0.899 ± 0.084 |
| S412M | 1.3 ± 0.067 |
| A152Q | 0.894 ± 0.41 |
| G408C | 1.01 ± 0.17 |
| L341A | 0.936 ± 0.45 |
| K243G | 1.03 ± 0.18 |
| E207K | 0.169 ± 0.094 |
| H35V | 0.15 ± 0.43 |
| A6N | -0.00395 ± 0.93 |
| A6H | 0.532 ± 0.11 |
| A6E | 1.37 ± 0.1 |
| D439G | 0.919 ± 0.15 |
| G462N | 1.34 ± 0.14 |
| G462K | -0.837 ± 0.47 |
